# In the supplement of paper PMC9112550, “Optimization of the antimicrobial peptide Bac7 by deep mutational scanning” (BMC Biology, 2022):
# Test system: Escherichia coli TOP10
# Assay: shrunken log2 fold change of peptide-encoding DNA abundance (4.5 h post-induction vs induction); higher = less antimicrobial activity (less host growth inhibition)
# Conditions: time post-induction: 4.5 h; library: site-saturation at positions 5, 18, 19, 20
# 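Note: peptides expressed intracellularly from a pBAD plasmid library in pooled LB shake-flask culture, induced with 0.3% L-arabinose, DNA abundance read by NGS, three biological replicates, DESeq2 with apeglm shrinkage.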
row,Sequence,shrunken log2 fold change
1,RRIRYRPPRLPRPRPRPDFEPRP,-0.0141
2,RRIRQRPPRLPRPRPRPRQRPRP,0.245
3,RRIRVRPPRLPRPRPRPMHGPRP,0.00623
4,RRIRFRPPRLPRPRPRPEWVPRP,-0.0753
5,RRIRARPPRLPRPRPRPISEPRP,0.0696
6,RRIRPRPPRLPRPRPRPLLIPRP,-0.758
7,RRIRRRPPRLPRPRPRPGENPRP,0.066
8,RRIRIRPPRLPRPRPRPRALPRP,0.0988
9,RRIRARPPRLPRPRPRPKEIPRP,0.711
10,RRIRRRPPRLPRPRPRPPWKPRP,0.0487
11,RRIRVRPPRLPRPRPRPSKLPRP,-0.797
12,RRIRSRPPRLPRPRPRPIRIPRP,-0.405
13,RRIRKRPPRLPRPRPRPLYPPRP,-0.177
14,RRIRDRPPRLPRPRPRPHTEPRP,-0.0337
15,RRIRCRPPRLPRPRPRPNPIPRP,-0.423
16,RRIRHRPPRLPRPRPRPGEQPRP,0.0974
17,RRIRTRPPRLPRPRPRPRFCPRP,0.443
18,RRIRQRPPRLPRPRPRPEKDPRP,0.343
19,RRIRMRPPRLPRPRPRPGRWPRP,1.66
20,RRIRHRPPRLPRPRPRPKKWPRP,-0.0201
21,RRIRSRPPRLPRPRPRPMEEPRP,-0.01
22,RRIRFRPPRLPRPRPRPWKNPRP,0.0106
23,RRIRARPPRLPRPRPRPDHDPRP,0.592
24,RRIRPRPPRLPRPRPRPEQIPRP,0.0118
25,RRIRRRPPRLPRPRPRPFLAPRP,0.925

row,Sequence,shrunken log2 fold change
1,RRIRMRPPRLPRPRPRPGLDPRP,2.44
2,RRIRERPPRLPRPRPRPQTTPRP,0.0104
3,RRIRFRPPRLPRPRPRPCKNPRP,0.0492
4,RRIRIRPPRLPRPRPRPVQCPRP,0.0517
5,RRIRARPPRLPRPRPRPQNPPRP,0.0626
6,RRIRVRPPRLPRPRPRPHPFPRP,-0.0878
7,RRIRVRPPRLPRPRPRPPQCPRP,-0.143
8,RRIRKRPPRLPRPRPRPIKKPRP,-0.077
9,RRIRERPPRLPRPRPRPRWVPRP,-0.0454
10,RRIRKRPPRLPRPRPRPTEAPRP,0.77
11,RRIRQRPPRLPRPRPRPRKHPRP,0.165
12,RRIRHRPPRLPRPRPRPPGQPRP,0.0303
13,RRIRPRPPRLPRPRPRPISDPRP,-0.507
14,RRIRMRPPRLPRPRPRPFWCPRP,0.314
15,RRIRQRPPRLPRPRPRPWWNPRP,-0.123
16,RRIRPRPPRLPRPRPRPSWNPRP,-0.158
17,RRIRHRPPRLPRPRPRPYMYPRP,-1.14
18,RRIRHRPPRLPRPRPRPMNAPRP,-0.282
19,RRIRQRPPRLPRPRPRPCHLPRP,-0.0134
20,RRIRDRPPRLPRPRPRPFDIPRP,0.289
21,RRIRPRPPRLPRPRPRPWCVPRP,-0.133
22,RRIRYRPPRLPRPRPRPMRMPRP,0.126
23,RRIRRRPPRLPRPRPRPCSNPRP,-0.166
24,RRIRRRPPRLPRPRPRPVVIPRP,0.0625
25,RRIRDRPPRLPRPRPRPICRPRP,0.266

row,Sequence,shrunken log2 fold change
1,RRIRHRPPRLPRPRPRPANNPRP,-0.613
2,RRIRVRPPRLPRPRPRPMFDPRP,-0.338
3,RRIRMRPPRLPRPRPRPYFYPRP,-0.53
4,RRIRFRPPRLPRPRPRPTMHPRP,-0.138
5,RRIRRRPPRLPRPRPRPPACPRP,0.619
6,RRIRYRPPRLPRPRPRPLEPPRP,-0.124
7,RRIRVRPPRLPRPRPRPVFIPRP,-0.144
8,RRIRDRPPRLPRPRPRPHILPRP,0.0348
9,RRIRGRPPRLPRPRPRPHTTPRP,0.333
10,RRIRARPPRLPRPRPRPVFCPRP,0.487
11,RRIRMRPPRLPRPRPRPYPRPRP,0.112
12,RRIRWRPPRLPRPRPRPKCGPRP,0.594
13,RRIRFRPPRLPRPRPRPASMPRP,-0.146
14,RRIRLRPPRLPRPRPRPIYNPRP,-0.989
15,RRIRSRPPRLPRPRPRPEYTPRP,-0.0105
16,RRIRVRPPRLPRPRPRPVPFPRP,-0.115
17,RRIRTRPPRLPRPRPRPGCHPRP,-0.136
18,RRIRKRPPRLPRPRPRPKPHPRP,0.747
19,RRIRWRPPRLPRPRPRPKLVPRP,0.00348
20,RRIRYRPPRLPRPRPRPSFTPRP,-0.91
21,RRIRSRPPRLPRPRPRPLYSPRP,-0.442
22,RRIRFRPPRLPRPRPRPQASPRP,0.0447
23,RRIRYRPPRLPRPRPRPIAMPRP,-0.322
24,RRIRDRPPRLPRPRPRPFYMPRP,-0.735
25,RRIRRRPPRLPRPRPRPYLFPRP,-0.305

row,Sequence,shrunken log2 fold change
1,RRIRFRPPRLPRPRPRPQCTPRP,-0.137
2,RRIRMRPPRLPRPRPRPQTLPRP,0.0245
3,RRIRSRPPRLPRPRPRPSYTPRP,-0.437
4,RRIRQRPPRLPRPRPRPFSGPRP,-0.0802
5,RRIRARPPRLPRPRPRPDSDPRP,-0.0357
6,RRIRERPPRLPRPRPRPCQMPRP,-0.161
7,RRIRDRPPRLPRPRPRPPNYPRP,-0.147
8,RRIRHRPPRLPRPRPRPEKYPRP,-0.159
9,RRIRMRPPRLPRPRPRPKHHPRP,0.148
10,RRIRERPPRLPRPRPRPAMCPRP,-0.456
11,RRIRYRPPRLPRPRPRPGAEPRP,0.227
12,RRIRIRPPRLPRPRPRPRFIPRP,-0.636
13,RRIRSRPPRLPRPRPRPMDEPRP,0.0216
14,RRIRNRPPRLPRPRPRPDVTPRP,0.216
15,RRIRERPPRLPRPRPRPYAQPRP,-0.384
16,RRIRERPPRLPRPRPRPIFKPRP,0.138
17,RRIRTRPPRLPRPRPRPMRDPRP,0.00292
18,RRIRKRPPRLPRPRPRPRRRPRP,1.27
19,RRIRMRPPRLPRPRPRPCFQPRP,-0.0397
20,RRIRPRPPRLPRPRPRPYCQPRP,-0.223
21,RRIRERPPRLPRPRPRPKHHPRP,-0.217
22,RRIRERPPRLPRPRPRPQWYPRP,-0.56
23,RRIRIRPPRLPRPRPRPSGHPRP,-0.397
24,RRIRERPPRLPRPRPRPCIGPRP,-0.479
25,RRIRCRPPRLPRPRPRPRQLPRP,0.0916

row,Sequence,shrunken log2 fold change
1,RRIRNRPPRLPRPRPRPNATPRP,-0.185
2,RRIRGRPPRLPRPRPRPHPSPRP,0.445
3,RRIRNRPPRLPRPRPRPPDTPRP,-0.0361
4,RRIRHRPPRLPRPRPRPATNPRP,0.607
5,RRIRKRPPRLPRPRPRPLGYPRP,0.202
6,RRIRLRPPRLPRPRPRPVPCPRP,-0.239
7,RRIRSRPPRLPRPRPRPMTEPRP,0.0273
8,RRIRERPPRLPRPRPRPVDNPRP,-0.107
9,RRIRERPPRLPRPRPRPHSIPRP,-0.0535
10,RRIRFRPPRLPRPRPRPLVTPRP,-0.318
11,RRIRFRPPRLPRPRPRPPKYPRP,-0.0263
12,RRIRNRPPRLPRPRPRPWRNPRP,0.0352
13,RRIRPRPPRLPRPRPRPVQDPRP,-0.0784
14,RRIRPRPPRLPRPRPRPIEQPRP,0.000804
15,RRIRLRPPRLPRPRPRPSKCPRP,-0.0487
16,RRIRRRPPRLPRPRPRPTHQPRP,0.414
17,RRIRKRPPRLPRPRPRPTKPPRP,0.221
18,RRIRQRPPRLPRPRPRPRRSPRP,-0.0497
19,RRIRVRPPRLPRPRPRPMLGPRP,-0.0049
20,RRIRGRPPRLPRPRPRPIIYPRP,0.0582
21,RRIRPRPPRLPRPRPRPRYKPRP,-0.269
22,RRIRIRPPRLPRPRPRPVMMPRP,-0.31
23,RRIRMRPPRLPRPRPRPIAYPRP,0.0419
24,RRIRSRPPRLPRPRPRPGNDPRP,0.111
25,RRIRKRPPRLPRPRPRPKNHPRP,0.109

row,Sequence,shrunken log2 fold change
1,RRIRYRPPRLPRPRPRPCRQPRP,-0.442
2,RRIRTRPPRLPRPRPRPCKQPRP,-0.254
3,RRIRTRPPRLPRPRPRPNHWPRP,0.0032
4,RRIRKRPPRLPRPRPRPMCPPRP,0.199
5,RRIRLRPPRLPRPRPRPAYFPRP,-0.364
6,RRIRDRPPRLPRPRPRPMFIPRP,-0.0363
7,RRIRTRPPRLPRPRPRPFMKPRP,-0.661
8,RRIRSRPPRLPRPRPRPGPVPRP,0.384
9,RRIRWRPPRLPRPRPRPFNSPRP,-0.207
10,RRIRCRPPRLPRPRPRPDHGPRP,-0.234
11,RRIRSRPPRLPRPRPRPQPRPRP,0.285
12,RRIRLRPPRLPRPRPRPQWQPRP,0.0949
13,RRIRWRPPRLPRPRPRPTKMPRP,0.344
14,RRIRVRPPRLPRPRPRPNNPPRP,-0.352
15,RRIRARPPRLPRPRPRPLQPPRP,0.583
16,RRIRCRPPRLPRPRPRPQFYPRP,-0.782
17,RRIRMRPPRLPRPRPRPEDLPRP,4.64
18,RRIRYRPPRLPRPRPRPKQGPRP,0.0737
19,RRIRWRPPRLPRPRPRPLMTPRP,0.47
20,RRIRGRPPRLPRPRPRPQQKPRP,0.206
21,RRIRCRPPRLPRPRPRPGHRPRP,-0.0213
22,RRIRMRPPRLPRPRPRPKIPPRP,0.365
23,RRIRERPPRLPRPRPRPCQPPRP,0.0208
24,RRIRYRPPRLPRPRPRPSLPPRP,-0.546
25,RRIRLRPPRLPRPRPRPSFEPRP,0.0552
